{
  "source": "patent US20180348220",
  "test_in_all_cases": "flow",
  "details_in_all_cases": "whole cells, 4C",
  "key": {"[1]": {"test_system": "unidentified cell-surface target of MCF7 cells (Homo sapiens)"}, "[2]": {"test_system": "unidentified cell-surface target of MDA-MB-231 cells (Homo sapiens)"}, "[3]": {"test_system": "unidentified cell-surface target of T-47D cells (Homo sapiens)"}},
  "data": [
    {"sequence": "GGCGGTCNGTCGAACTGTNATGAGCGTGCCGCCCGCGTAGCG [14A-MCF7mh]", "values": [
      {"measurement": "Kd", "setting": "[1]; n = Ds, ±0.2, printed 14A-MCF7rmh", "result": 2.1, "unit": "nM"}
    ]},
    {"sequence": "GGCGCCAGGGGTGTTTGTGCCGTGAGNTGTGGCGCCCGCGTAGCG [05-MB231GCmh]", "values": [
      {"measurement": "Kd", "setting": "[2]; n = Ds, ±0.1", "result": 1.6, "unit": "nM"}
    ]},
    {"sequence": "GCGGTCNGTCGAACTGTNATGAGCGTGCCGCCGCGTAGCG [14A-MCF7mh (40DsDs)]", "values": [
      {"measurement": "Kd", "setting": "[1]; n = Ds, ±0.2", "result": 2.2, "unit": "nM"}
    ]},
    {"sequence": "CCCTCTTAAGTTTATAGNTGTCTTTTGGTNCCTAGGGCGTTTTAAAGGGCGCGTAGCG [23-MB231bmh]", "values": [
      {"measurement": "Kd", "setting": "[2]; n = Ds, ±0.9", "result": 2.5, "unit": "nM"}
    ]},
    {"sequence": "CCCTCTTAAGTTTATAGNTGTCTTTTGGTNCCTAGGGCGTTTTAAAGGG [23-MB231b]", "values": [
      {"measurement": "Kd", "setting": "[2]; n = Ds, ±5.6", "result": 23.3, "unit": "nM"}
    ]},
    {"sequence": "GGCCCGGCTGGCGAAGCCTCCTGGNCTAAGGTTTCTAAAGGGCCCGCGTAGCG [08B-MCF7mh2]", "values": [
      {"measurement": "Kd", "setting": "[1]; n = Ds, ±0.1", "result": 2.3, "unit": "nM"}
    ]},
    {"sequence": "GCGGCGAAGATCACNACTAGGGGNCCTCGCCGC [03-T47D (DsDs)]", "values": [
      {"measurement": "Kd", "setting": "[3]; n = Ds at 15 and 24, ±6.7", "result": 91.6, "unit": "nM"}
    ]},
    {"sequence": "GGCGCCAGGGGTGTTTGTGCCGTGAGNTGTGGCGCC [05-MB231GC]", "values": [
      {"measurement": "Kd", "setting": "[2]; n = Ds, ±0.2", "result": 2.2, "unit": "nM"}
    ]},
    {"sequence": "CTCTAGTCNGTCGAACTGTNATGAGCGTGCTAGGGGG [14A-MCF7 (37DsDs)]", "values": [
      {"measurement": "Kd", "setting": "[1]; n = Ds, ±0.1, Mg2+", "result": 2.1, "unit": "nM"}
    ]},
    {"sequence": "GCGGCGAAGATCACNACTAGGGGNCCTCGCCGCCGCGTAGCG [03-T47Dmh]", "values": [
      {"measurement": "Kd", "setting": "[3]; n = Ds, ±3.0", "result": 39.3, "unit": "nM"}
    ]},
    {"sequence": "CGGCGGTCNGTCGAACTGTNATGAGCGTGCCGCCGCGCGTAGCG [14A-MCF7mh (44DsDs)]", "values": [
      {"measurement": "Kd", "setting": "[1]; n = Ds, ±0.2", "result": 1.9, "unit": "nM"}
    ]},
    {"sequence": "CCGCGCAGCCTGGGNTCTCTTTTAGTCNAGTTCAATCGCGCGG [07-MB231 (DsDs)]", "values": [
      {"measurement": "Kd", "setting": "[2]; n = Ds at 15 and 28, ±0.5", "result": 2.2, "unit": "nM"}
    ]},
    {"sequence": "CCGCGCAGCCTGGGNTCTCTTTTAGTCNAGTTCAATCGCGCGGCGCGTAGCG [07-MB231mh]", "values": [
      {"measurement": "Kd", "setting": "[2]; n = Ds, ±0.3", "result": 2, "unit": "nM"}
    ]},
    {"sequence": "CGGTCNGTCGAACTGTNATGAGCGTGCCGCGCGTAGCG [14A-MCF7mh (38DsDs)]", "values": [
      {"measurement": "Kd", "setting": "[1]; n = Ds, ±0.02", "result": 2.6, "unit": "nM"}
    ]},
    {"sequence": "GGCCCGGCTGGCATGTANTCATGCCTCCTGGNCTAAGGTTTCTAAAGGGCC [08B-MCF7 (51DsDs)]", "values": [
      {"measurement": "Kd", "setting": "[1]; n = Ds at 18 and 32, ±0.3", "result": 3.2, "unit": "nM"}
    ]},
    {"sequence": "GGCCCGGCTGGCATGTANTCATGCCTCCTGGNCTAAGGTTTCTAAAGGGCCCGCGTAGCG [08B-MCF7mh]", "values": [
      {"measurement": "Kd", "setting": "[1]; n = Ds, ±0.1 (printed 01)", "result": 2.5, "unit": "nM"}
    ]}
  ]
}
